From patent US20180230218A1 (IMMUNOGEN, published 2018)
Residue numbers refer to the chain shown, from its start. Names and notes keep the numbering of the source.

B1: hucMet27Gv1.3 (antibody, human IgG1, kappa)
light: EIVLTQSPATLSLSPGERATLSCRASESVDSYGNSFIHWYQQKPGQAPRLLIYRASNLESGIPARFSGSGSGTDFTLTISSLEPEDFAVYYCQQSNEEPLTFGQGTKVELKRTVAAPSVFIFPPSDEQLKSGTASVVCLLNNFYPREAKVQWKVDNALQSGNSQESVTEQDSKDSTYSLSSTLTLSKADYEKHKVYACEVTHQGLSSPVTKSFNRGEC
heavy: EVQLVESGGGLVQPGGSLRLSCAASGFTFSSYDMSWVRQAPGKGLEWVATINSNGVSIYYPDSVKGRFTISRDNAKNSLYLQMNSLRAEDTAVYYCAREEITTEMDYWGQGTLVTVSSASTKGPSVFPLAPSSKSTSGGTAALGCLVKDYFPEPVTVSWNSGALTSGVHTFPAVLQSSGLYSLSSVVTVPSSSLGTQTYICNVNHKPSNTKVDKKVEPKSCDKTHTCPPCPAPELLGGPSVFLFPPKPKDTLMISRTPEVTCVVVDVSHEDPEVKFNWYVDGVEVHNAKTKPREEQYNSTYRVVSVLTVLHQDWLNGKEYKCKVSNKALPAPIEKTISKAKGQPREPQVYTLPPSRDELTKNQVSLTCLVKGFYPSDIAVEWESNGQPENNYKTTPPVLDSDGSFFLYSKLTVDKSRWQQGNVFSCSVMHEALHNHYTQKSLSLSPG
notes: CDR-grafted cMET-27 with one S49A backmutation in VH; preferred construct
B2: hucMet27Gv1.3HingeIgG2S127C (antibody)
light: B1 light
heavy: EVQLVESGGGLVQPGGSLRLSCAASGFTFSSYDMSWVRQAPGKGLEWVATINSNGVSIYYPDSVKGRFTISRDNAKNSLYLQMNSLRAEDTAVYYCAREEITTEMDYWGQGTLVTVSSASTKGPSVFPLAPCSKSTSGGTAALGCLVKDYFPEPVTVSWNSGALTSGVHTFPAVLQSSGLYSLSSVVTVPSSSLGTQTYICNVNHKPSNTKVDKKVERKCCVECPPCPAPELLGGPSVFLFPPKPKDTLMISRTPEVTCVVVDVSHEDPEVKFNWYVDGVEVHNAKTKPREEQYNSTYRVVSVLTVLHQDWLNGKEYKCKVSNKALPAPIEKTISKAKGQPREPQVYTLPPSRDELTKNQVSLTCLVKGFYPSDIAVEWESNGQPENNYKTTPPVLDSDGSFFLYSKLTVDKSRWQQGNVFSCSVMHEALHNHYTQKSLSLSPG
B3: hucMet27Gv1.3Hinge28 (antibody)
light: B1 light
heavy: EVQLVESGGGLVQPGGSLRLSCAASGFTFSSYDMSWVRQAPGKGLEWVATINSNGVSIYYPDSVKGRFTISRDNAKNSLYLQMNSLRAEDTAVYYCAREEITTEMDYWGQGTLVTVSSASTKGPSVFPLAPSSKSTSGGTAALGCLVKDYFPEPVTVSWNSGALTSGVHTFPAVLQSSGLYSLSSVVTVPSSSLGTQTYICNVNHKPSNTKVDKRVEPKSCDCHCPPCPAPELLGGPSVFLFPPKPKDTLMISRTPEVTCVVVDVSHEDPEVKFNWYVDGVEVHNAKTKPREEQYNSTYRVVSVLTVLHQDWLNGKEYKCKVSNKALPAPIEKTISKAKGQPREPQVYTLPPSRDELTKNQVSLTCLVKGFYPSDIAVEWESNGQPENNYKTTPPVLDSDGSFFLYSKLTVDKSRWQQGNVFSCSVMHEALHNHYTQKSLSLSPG
notes: Hinge#28 variant of hucMet27Gv1.3
B4: hucMet27Gv1.3Hinge26C442 (antibody)
light: B1 light
heavy: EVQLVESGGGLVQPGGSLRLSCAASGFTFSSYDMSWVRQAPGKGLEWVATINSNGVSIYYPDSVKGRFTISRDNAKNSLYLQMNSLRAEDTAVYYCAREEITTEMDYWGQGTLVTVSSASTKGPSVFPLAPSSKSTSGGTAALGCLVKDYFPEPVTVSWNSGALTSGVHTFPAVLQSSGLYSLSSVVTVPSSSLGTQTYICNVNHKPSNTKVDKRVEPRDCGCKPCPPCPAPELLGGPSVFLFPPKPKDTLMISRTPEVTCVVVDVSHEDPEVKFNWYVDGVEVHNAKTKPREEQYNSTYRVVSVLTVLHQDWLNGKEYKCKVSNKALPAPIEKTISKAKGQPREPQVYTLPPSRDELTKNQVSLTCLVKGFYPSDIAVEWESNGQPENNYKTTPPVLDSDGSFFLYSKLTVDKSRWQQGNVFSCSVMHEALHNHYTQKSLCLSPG
notes: Hinge#26 and C442 (Cysmab) variant of hucMet27Gv1.3
B5: hucMet27Gv1.3C442 (antibody)
light: B1 light
heavy: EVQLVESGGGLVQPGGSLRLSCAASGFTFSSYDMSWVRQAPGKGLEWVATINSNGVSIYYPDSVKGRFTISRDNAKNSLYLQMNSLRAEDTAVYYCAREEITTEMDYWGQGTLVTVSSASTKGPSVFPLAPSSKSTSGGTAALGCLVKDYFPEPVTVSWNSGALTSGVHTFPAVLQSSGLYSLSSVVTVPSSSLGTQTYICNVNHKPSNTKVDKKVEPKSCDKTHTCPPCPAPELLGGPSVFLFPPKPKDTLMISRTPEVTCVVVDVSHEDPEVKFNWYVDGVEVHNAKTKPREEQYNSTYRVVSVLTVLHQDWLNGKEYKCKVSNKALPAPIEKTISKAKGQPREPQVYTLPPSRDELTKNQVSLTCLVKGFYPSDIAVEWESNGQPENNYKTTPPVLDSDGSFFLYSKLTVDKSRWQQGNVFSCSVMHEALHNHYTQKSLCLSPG
notes: Cysteine-engineered (C442, Cysmab) form of hucMet27Gv1.3, tested unconjugated
B6: hucMet27Gv1.2 (antibody, human IgG1, kappa, V domains shown)
VH: EVQLVESGGGLVQPGGSLRLSCAASGFTFSSYDMSWVRQAPGKGLELVATINSNGVSIYYPDSVKGRFTISRDIAKNSLYLQMNSLRAEDTAVYYCAREEITTEMDYWGQGTLVTVSS
VL: EIVLTQSPATLSLSPGERATLSCRASESVDSYGNSFIHWYQQKPGQAPRLLIYRASNLESGIPARFSGSGSGTDFTLTISSLEPEDFAVYYCQQSNEEPLTFGQGTKVELKR
notes: CDR-grafted cMET-27 with backmutations only in the VH domain (W47L, S49A, N73I); also called v1.2 (CDR-grafted)
B7: hucMet27v1.2 (antibody, human IgG1, kappa, V domains shown)
VH: B6 VH with A40T, S78T, N84S, V93M, L113S
VL: DIVLTQSPASLAVSPGQRATISCRASESVDSYGNSFIHWYQQKPGQPPKLLIYRASNLESGIPARFSGSGSRTDFTLTINPVEANDVATYYCQQSNEEPLTFGGGTKLELKR
notes: also called hu247.27.16 v1.2 (resurfaced); hu247.27.16 LC1.2 / HC1.0
B8: hucMet22Gv2.2 (antibody, V domains shown)
VH: QVQLVQSGAEVKKPGASVKVSCKASGYTFTDYNMDWVRQAPGQRLEWIGDLNPNNGATIYNQKFKGRATLTVDMSASTAYMELSSLRSEDTAVYYCARGNYYGNYYYLMDYWGQGTSVTVSS
VL: DIQMTQSPSSLSASVGDRVTITCRASENIYSTLAWYQQKPGKAPKLLVYAATNLADGVPSRFSGSGSGTDYTLTISSLQPEDFATYYCQHFWGTPYTFGQGTKVEIKR
notes: also called humanized (CDR-grafted) cMET-22

How the values were obtained:
Human cMet-ECD-his = target: T1, Human cMet-ECD-his (human, UniProt P08581 25-932); test: BLI (ForteBio), antibody on anti-hIgG Fc capture biosensor, soluble cMet-ECD-his 2.6-30 nM, 1:1 fit
T1 construct: extracellular domain; Soluble analyte in the ForteBio assay; also called hu cMet; soluble recombinant hu cMet protein; not shown: histidine-containing peptide (His tag)

Cyno cMet-ECD-his = target: T2, Cyno cMet-ECD-his (cynomolgus monkey); test: as above
T2 construct: extracellular domain; Soluble analyte in the ForteBio assay; also called cynomolgus monkey cMet
Experimental: Briefly, each antibody was bound and immobilized onto an anti-hIgG Fc Capture biosensor and then incubated in the presence of different concentrations (2.6-30 nM) of His-tagged soluble cMet. The kinetics of binding were determined via ForteBio analysis binding using a 1:1 binding fit model.

T1 sequence (P08581 25-932): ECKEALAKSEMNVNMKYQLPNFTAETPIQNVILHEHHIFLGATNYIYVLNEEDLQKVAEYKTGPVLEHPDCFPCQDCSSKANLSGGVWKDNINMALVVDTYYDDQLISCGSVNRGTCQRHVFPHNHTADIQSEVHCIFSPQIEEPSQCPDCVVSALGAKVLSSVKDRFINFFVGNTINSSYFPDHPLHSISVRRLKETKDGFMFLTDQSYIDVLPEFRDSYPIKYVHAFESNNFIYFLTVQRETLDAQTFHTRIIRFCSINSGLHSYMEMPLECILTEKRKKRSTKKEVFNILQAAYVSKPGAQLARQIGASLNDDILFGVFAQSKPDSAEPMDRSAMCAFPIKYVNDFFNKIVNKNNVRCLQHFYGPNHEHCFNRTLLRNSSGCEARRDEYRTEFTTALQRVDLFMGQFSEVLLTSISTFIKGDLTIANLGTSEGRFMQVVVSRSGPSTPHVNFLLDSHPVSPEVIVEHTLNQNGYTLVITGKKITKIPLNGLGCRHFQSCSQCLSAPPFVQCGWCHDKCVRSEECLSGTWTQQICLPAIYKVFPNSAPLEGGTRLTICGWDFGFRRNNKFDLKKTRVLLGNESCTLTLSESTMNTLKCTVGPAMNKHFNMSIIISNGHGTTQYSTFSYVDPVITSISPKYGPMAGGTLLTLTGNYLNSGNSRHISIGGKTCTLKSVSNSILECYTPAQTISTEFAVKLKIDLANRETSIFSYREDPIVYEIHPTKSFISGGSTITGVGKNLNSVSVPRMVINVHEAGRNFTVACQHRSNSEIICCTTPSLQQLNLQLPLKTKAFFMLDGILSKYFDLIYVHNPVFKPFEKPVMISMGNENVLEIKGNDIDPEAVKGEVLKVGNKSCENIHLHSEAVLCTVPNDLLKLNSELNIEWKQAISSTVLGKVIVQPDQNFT

Binder | Kd (Human cMet-ECD-his) | koff (Human cMet-ECD-his) | kon (Human cMet-ECD-his) | Kd (Cyno cMet-ECD-his) | koff (Cyno cMet-ECD-his) | kon (Cyno cMet-ECD-his)
B1 | 1.81 nM | 0.000478 s⁻¹ | 264000 M⁻¹ s⁻¹ | 1.94 nM | 0.000415 s⁻¹ | 214000 M⁻¹ s⁻¹
B2 | 1.67 nM | 0.000436 s⁻¹ | 235000 M⁻¹ s⁻¹ | 1.47 nM | 0.00045 s⁻¹ | 307000 M⁻¹ s⁻¹
B3 | 1.96 nM | 0.000451 s⁻¹ | 230000 M⁻¹ s⁻¹ | 1.68 nM | 0.000564 s⁻¹ | 336000 M⁻¹ s⁻¹
B4 | 1.9 nM | 0.000497 s⁻¹ | 262000 M⁻¹ s⁻¹ | 1.57 nM | 0.000496 s⁻¹ | 317000 M⁻¹ s⁻¹
B5 | 1.64 nM | 0.000447 s⁻¹ | 272000 M⁻¹ s⁻¹ | 1.6 nM | 0.000439 s⁻¹ | 273000 M⁻¹ s⁻¹
B6 | 0.941 nM | 0.000154 s⁻¹ | 266000 M⁻¹ s⁻¹ | 0.614 nM | 0.000148 s⁻¹ | 241000 M⁻¹ s⁻¹
B7 | 0.989 nM | 0.000233 s⁻¹ | 236000 M⁻¹ s⁻¹ | 0.928 nM | 0.000196 s⁻¹ | 212000 M⁻¹ s⁻¹
B8 | 4.77 nM | 0.00213 s⁻¹ | 445000 M⁻¹ s⁻¹ | 3.62 nM | 0.00128 s⁻¹ | 353000 M⁻¹ s⁻¹
